Source: patent US20240024479A1, “NK CELLS OR T CELLS EXPRESSING CHIMERIC HEMATOPOIETIC GROWTH FACTOR RECEPTORS AND METHODS OF USE” (The United States of America, as represented by the …, priority 2020, published 2024)

Experiments:
[1] = tested on: c-MPL transduced NK cells; assay: Proliferation of c-MPL-expressing human NK cells with thrombopoietin mimetics; format: cell-based; conditions: 4-5 days culture
Method: FIGS. 16A-16C show proliferation of human NK cells transduced to express GFP and c-MPL cultured for 4-5 days with the indicated concentrations of thrombopoietin (FIG. 16A), romiplostim (FIG. 16B), or eltrombopag (FIG. 16C). […] Mean and SEM of results from 3 blood donors are shown.
NK cells from PBMC from three blood donors were stimulated and transduced to express GFP and c-MPL, then were cultured for 4-5 days with thrombopoietin, romiplostim, or eltrombopag.

[2] = tested on: NK cells transduced to express MPL or MPL-IL2RB chimeric receptors; assay: Phospho-STAT5 and phospho-S6 signaling in transduced NK cells; format: cell-based, human
[3] = target: human thrombopoietin receptor (c-MPL) expressed on transduced NK or T cells (human) (UniProt P40238); assay: cell-based or functional assay
primary human NK cells [4] = assay: Chimeric MPL-IL2RB constructs (lentiviral) in primary human NK cells, cell numbers with MPL ligands; format: cell-based; conditions: after 4 days; medium lacking cytokines; lentiviral vectors
From the text: (§1) Lentiviral and retroviral vectors expressing MPL-IL2RB and other chimeric MPL receptors: Lentiviral vectors were created by Vectorbuilder (IL, USA) by insertion of DNA sequences encoding EGFP and chimeric molecules including extracellular, transmembrane, and in some cases, proximal intracellular regions of human MPL (NM_005373.3) fused with partial intracellular domains from human IL2RB (NM_000878.5) using the linkages as shown in FIG. 17. Certain of these chimeric receptor sequences were also inserted into a gamma retroviral vector backbone also encoding EGFP or firefly luciferase. Analogous vectors encoding unmodified MPL (NM_005373.3) were used for comparison. […]
(§2) In vitro cell culture experiments with human NK cells expressing MPL-IL2RB: Approximately 2-4 days after transduction, NK cells were placed in culture with varied concentrations of eltrombopag (Selleckchem, TX, USA) or romiplostim (Amgen, CA, USA); where concentrations are not indicated, 0.33 ug/mL eltrombopag or 1.5 ng/mL romiplostim were used. […] Numbers of GFP^+ cells were quantitated after 4-6 days (or indicated durations) using a BD Fortessa flow cytometer (BD Biosciences, NJ, USA) and compared with initial numbers to determine the fold expansion.

K562 target cells = assay: Degranulation and cytokine production of NK cells expressing MPL-IL2RB or MPL with K562 targets; format: cell-based, human; conditions: for degranulation of cytotoxic granules in response to K562 target cells: 4-day exposure to eltrombopag or romiplostim; for production of IFN-gamma and TNF: culture with eltrombopag or romiplostim and exposure to K562 targets
Method: To examine degranulation, cells were washed after two hours and stained with anti-CD107a (H4A3) (BioLegend). To assay cytokine production, GolgiPlug and GolgiStop (BD Biosciences) were added at manufacturer's recommended concentrations within the first hour of co-culture with K562. After 4 hours, cells were washed and stained for cell surface markers, then stained intracellularly with mAb recognizing TNF-α (Mab 11) and IFN-γ (B27) (BD Biosciences).
(§3) In vitro cell culture experiments with human NK cells expressing MPL-IL2RB: Approximately 2-4 days after transduction, NK cells were placed in culture with varied concentrations of eltrombopag (Selleckchem, TX, USA) or romiplostim (Amgen, CA, USA); where concentrations are not indicated, 0.33 ug/mL eltrombopag or 1.5 ng/mL romiplostim were used. Medium and drugs were refreshed by addition of new medium or by changing half the culture volumes every 2-4 days. Numbers of GFP^+ cells were quantitated after 4-6 days (or indicated durations) using a BD Fortessa flow cytometer (BD Biosciences, NJ, USA) and compared with initial numbers to determine the fold expansion.

Human NK cells = assay: Matrix of IL-2 and eltrombopag concentrations, NK cell numbers after 6 days; format: cell-based; conditions: for proliferation in the presence of eltrombopag at high IL-2 concentrations compared with IL-2 alone: 6 days
Method: as §3

primary human NK cells [5] = assay: Time course of survival/proliferation of NK cells expressing MPL-IL2RB (retroviral); format: cell-based; conditions: varied concentrations of eltrombopag, romiplostim or thrombopoietin; retroviral vectors
From the text: as §1, §2

romiplostim
proliferation of c-MPL transduced NK cells [1]: induce proliferation
phosphorylated ribosomal protein S6 responses (mTOR activation) ([2]; NK cells expressing either MPL-IL2RB or MPL): induced
phosphorylated STAT5 ([2]; eltrombopag 0.33 μg/ml or romiplostim 1.5 ng/mL, compared with 5 U/mL IL-2): shorter dilution pSTAT5 response

recombinant human thrombopoietin (rhTPO) (from UniProt P40225 22-353) (ligand)
Bcl-2 RMFI in c-MPL+ NK-92 cells with TPO [3]: 64.5 RMFI
Bcl-xL RMFI in c-MPL+ NK-92 cells with TPO [3]: 4.52 RMFI
CD107a degranulation of GFP+ MPL+ primary NK cells against K562, TPO plus 25 U/ml IL-2 [3]: 83%
GFP fold-expansion of c-MPL transduced primary T cells, TPO alone, day 6 [3]: 5.96 fold
average percentage of GFP+ MPL+ cells among recovered human cells in blood and spleen of TPO-treated NSG mice (about 10% injected) [3]: 15%
average percentage of GFP+ MPL+ cells among recovered human cells in liver and lung of TPO-treated NSG mice (about 10% injected) [3]: 20%
expansion of c-MPL+ activated T cells, TPO plus LD IL-2, day 6 [3]: 6 to 11.4 fold
fold change of GFP+ c-MPL+ primary NK cells, TPO plus 10 U/ml IL-2, day 6 [3]: 24.3 fold
fold change of GFP+ c-MPL+ primary NK cells, TPO plus 25 U/ml IL-2, day 6 [3]: 34.1 fold
fold expansion of c-MPL+ NK-92 cells with TPO alone, day 8 [3]: 7 fold
fold expansion of c-MPL+ NK-92 cells, TPO plus 1 U/ml IL-2, day 8 [3]: 23.2 fold
mean percentage of dead Raji cells, c-MPL+ NK-92 cells exposed to TPO plus LD IL-2, E:T 1:1 [3]: 84%
mean percentage of dead Raji cells, c-MPL+ NK-92 cells exposed to TPO plus LD IL-2, E:T 10:1 [3]: 85%
pS6 expression (RMFI) in c-MPL+ NK-92 cells, TPO plus LD IL-2 [3]: 11.8 RMFI
percentage of GFP+ MPL+ cells in parallel in vitro cultures of the mixed cells with only TPO [3]: 31%

B1: MPL: unmodified human MPL (NM_005373.3), SEQ ID NO: 1, expressed in NK cells for comparison (protein, listed as Homo sapiens)
chain: MPSWALFMVTSCLLLAPQNLAQVSSQDVSLLASDSEPLKCFSRTFEDLTCFWDEEEAAPSGTYQLLYAYPREKPRACPLSSQSMPHFGTRYVCQFPDQEEVRLFFPLHLWVKNVFLNQTRTQRVLFVDSVGLPAPPSIIKAMGGSQPGELQISWEEPAPEISDFLRYELRYGPRDPKNSTGPTVIQLIATETCCPALQRPHSASALDQSPCAQPTMPWQDGPKQTSPSREASALTAEGGSCLISGLQPGNSYWLQLRSEPDGISLGGSWGSWSLPVTVDLPGDAVALGLQCFTLDLKNVTCQWQQQDHASSQGFFYHSRARCCPRDRYPIWENCEEEEKTNPGLQTPQFSRCHFKSRNDSIIHILVEVTTAPGTVHSYLGSPFWIHQAVRLPTPNLHWREISSGHLELEWQHPSSWAAQETCYQLRYTGEGHQDWKVLEPPLGARGGTLELRPRSRYRLQLRARLNGPTYQGPWSSWSDPTRVETATETAWISLVTALHLVLGLSAVLGLLLLRWQFPAHYRRLRHALWPSLPDLHRVLGQYLRDTAALSPPKATVSDTCEEVEPSLLEILPKSSERTPLPLCSSQAQMDYRRLQPSCLGTMPLSVCPPMAESGSCCTTHIANHSYLPLSYWQQP
NK cell numbers in presence of eltrombopag or romiplostim (primary human NK cells [4]): greater cell numbers
degranulation of cytotoxic granules in response to K562 target cells (K562 target cells): augmented degranulation
production of IFN-gamma and TNF (K562 target cells): augmented production
proliferation in the presence of eltrombopag at high IL-2 concentrations compared with IL-2 alone (Human NK cells): deficit in proliferation

B2: MPL-IL2RB: chimeric receptor, SEQ ID NO: 8 (amino acids 1-582, c-MPL; amino acids 583-801, IL2RB) (protein)
chain: MPSWALFMVTSCLLLAPQNLAQVSSQDVSLLASDSEPLKCFSRTFEDLTCFWDEEEAAPSGTYQLLYAYPREKPRACPLSSQSMPHFGTRYVCQFPDQEEVRLFFPLHLWVKNVFLNQTRTQRVLFVDSVGLPAPPSIIKAMGGSQPGELQISWEEPAPEISDFLRYELRYGPRDPKNSTGPTVIQLIATETCCPALQRPHSASALDQSPCAQPTMPWQDGPKQTSPSREASALTAEGGSCLISGLQPGNSYWLQLRSEPDGISLGGSWGSWSLPVTVDLPGDAVALGLQCFTLDLKNVTCQWQQQDHASSQGFFYHSRARCCPRDRYPIWENCEEEEKTNPGLQTPQFSRCHFKSRNDSIIHILVEVTTAPGTVHSYLGSPFWIHQAVRLPTPNLHWREISSGHLELEWQHPSSWAAQETCYQLRYTGEGHQDWKVLEPPLGARGGTLELRPRSRYRLQLRARLNGPTYQGPWSSWSDPTRVETATETAWISLVTALHLVLGLSAVLGLLLLRWQFPAHYRRLRHALWPSLPDLHRVLGQYLRDTAALSPPKATVSDTCEEVEPSLLEILPKSSERTPLPLVTQLLLQQDKVPEPASLSSNHSLTSCFTNQGYFFFHLPDALEIEACQVYFTYDPYSEEDPDEGVAGAPTGSSPQPLQPLSGEDDAYCTFPSRDDLLLFSPSLLGGPSPPSTAPGGSGAGEERMPPSLQERVPRDWDPQPLGPPTPGVPDLVDFQPPPELVLREAGEEVPDAGPREGVSFPWSRPPGQGEFRALNARLPLNTDAYLSLQELQGQDPTHLV
NK cell numbers in presence of eltrombopag or romiplostim (primary human NK cells [4]): greater cell numbers than MPL-expressing NK cells
degranulation of cytotoxic granules in response to K562 target cells (K562 target cells): augmented degranulation
production of IFN-gamma and TNF (K562 target cells): augmented production
fold change in cell numbers (primary human NK cells [5]): greater fold change in cell numbers
proliferation in the presence of eltrombopag at high IL-2 concentrations compared with IL-2 alone (Human NK cells): comparable numbers
NK cell numbers after 6 days (Human NK cells; low concentrations of IL-2, with eltrombopag): greater numbers
intracellular signals (pSTAT5, pS6) induced via receptor ([2]; compared with MPL): comparable to those triggered by MPL
